In patent publication US20190389961A1 (INNATE PHARMA, published 2019):
Residue numbers refer to the chain shown, from its start. Numbers in names are those of the source.

Legend:
[1] = target: T1, soluble recombinant human CD39-M2 extracellular domain protein (human, UniProt P49961 38-478, limits assumed); experiment: cell-based or functional assay
T1 sequence: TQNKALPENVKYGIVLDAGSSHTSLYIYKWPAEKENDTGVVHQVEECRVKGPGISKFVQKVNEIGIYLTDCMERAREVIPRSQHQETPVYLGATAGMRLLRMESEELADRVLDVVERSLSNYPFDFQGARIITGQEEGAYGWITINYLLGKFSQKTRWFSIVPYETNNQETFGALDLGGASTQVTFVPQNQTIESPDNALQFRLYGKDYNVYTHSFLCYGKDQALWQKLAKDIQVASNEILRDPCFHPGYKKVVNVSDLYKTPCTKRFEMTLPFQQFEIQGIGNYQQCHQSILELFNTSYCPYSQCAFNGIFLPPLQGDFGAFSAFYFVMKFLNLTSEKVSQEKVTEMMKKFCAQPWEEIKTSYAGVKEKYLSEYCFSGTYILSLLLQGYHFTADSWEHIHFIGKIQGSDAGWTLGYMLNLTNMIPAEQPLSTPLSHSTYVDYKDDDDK

[2] = target: T2, human CD39 (vascular CD39, NTPDase1) expressed at the surface of cells (human, UniProt P49961 1-510); experiment: cell-based or functional assay
T2 sequence: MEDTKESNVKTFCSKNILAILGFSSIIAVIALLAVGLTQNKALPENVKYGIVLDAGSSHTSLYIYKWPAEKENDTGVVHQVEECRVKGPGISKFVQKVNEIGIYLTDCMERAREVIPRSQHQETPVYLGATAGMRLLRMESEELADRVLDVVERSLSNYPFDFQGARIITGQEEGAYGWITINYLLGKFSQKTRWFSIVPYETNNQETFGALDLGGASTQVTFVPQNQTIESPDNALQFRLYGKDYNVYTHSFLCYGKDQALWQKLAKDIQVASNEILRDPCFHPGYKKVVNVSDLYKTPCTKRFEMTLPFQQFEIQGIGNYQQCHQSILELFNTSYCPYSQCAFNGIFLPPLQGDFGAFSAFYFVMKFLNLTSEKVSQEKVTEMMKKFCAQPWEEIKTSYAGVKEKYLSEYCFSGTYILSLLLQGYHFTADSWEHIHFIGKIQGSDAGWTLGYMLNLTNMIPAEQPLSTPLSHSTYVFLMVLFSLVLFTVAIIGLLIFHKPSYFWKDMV

[3] = target: T2, human CD39 (vascular CD39, NTPDase1) …; experiment: flow cytometry on Ramos lymphoma cells, second set of experiments
Method: Cells were incubated with various concentration of unlabeled anti-CD39 antibody from 30 μg/ml to 5×10-⁴ μg/ml, for 30 minutes at 4° C. After washes, cells were incubated with Goat anti-mouse H+L labeled secondary antibody for 30 min at 4° C.

human CD39 mutant 19 = target: T3, human CD39 mutant 19 (human, UniProt P49961 1-510); experiment: flow cytometry on Hek-293T cells expressing CD39 mutant 19 (panel M19)
T3 construct: Expressed on Hek-293T cells; also called M19
T3 chain: T2 sequence with R138A, M139A, E142K
Method: (§1) Mutants were transfected in Hek-293T cells, as shown in the table 1, using numbering of SEQ ID NO: 1. […] Mutant 19 includes substitutions at residues R138, M139 and E142.
(§2) In order to define the epitopes of the further anti-CD39 antibodies of Example 5, they were tested for loss of binding to the panel of CD39 mutants as described in Example 1 and Table 1. Mutants were transfected in Hek-293T cells, as shown in the table 1, using numbering of SEQ ID NO: 1.Dose-ranges of test antibodies (10-2.5-0.625-0.1563-0.0391-0.0098-0.0024-0.0006 μg/ml) are tested on the 20 generated mutants by flow cytometry.

[4] = target: T4, recombinant human CD39-L2 (NTPDase6, ENTPD6) (human, UniProt O75354 61-484, limits assumed); experiment: ELISA on plate-coated recombinant huCD39 L2; the single curve has no legend on the sheet, I-394 by the legend paragraph 70
T4 construct: Genbank NP_001238 is printed
T4 sequence: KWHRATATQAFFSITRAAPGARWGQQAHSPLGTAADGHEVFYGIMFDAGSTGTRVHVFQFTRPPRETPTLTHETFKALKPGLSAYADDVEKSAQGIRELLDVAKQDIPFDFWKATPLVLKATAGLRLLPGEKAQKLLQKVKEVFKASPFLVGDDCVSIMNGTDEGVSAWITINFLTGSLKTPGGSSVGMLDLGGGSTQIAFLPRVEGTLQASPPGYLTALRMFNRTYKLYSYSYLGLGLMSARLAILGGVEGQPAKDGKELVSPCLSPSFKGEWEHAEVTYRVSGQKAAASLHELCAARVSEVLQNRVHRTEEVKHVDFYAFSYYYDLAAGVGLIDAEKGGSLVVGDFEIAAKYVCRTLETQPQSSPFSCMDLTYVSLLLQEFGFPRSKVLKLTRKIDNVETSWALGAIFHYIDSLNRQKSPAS
Method: Wells were washed in TBS Tween 20, and further saturated 2H at RT in TBS Blocking buffer. Dose range concentration of primary antibody was incubated in TBS blocking buffer for 2 h at RT. Wells were washed in TBS Tween 20. […] Optical density was measured on Enspire™ at OD=450.

[5] = target: T2, human CD39 (vascular CD39, NTPDase1) …; experiment: flow cytometry on Hek-293T cells expressing wild-type CD39 (panel WT); unstained (US) median 10,3; antibody concentration not shown
Method: as §1, §2

IC50, inhibition of ATPase activity of soluble CD39 protein (Cell Titer Glo) [1]: 0.003 µg/mL
IC50, inhibition of ATPase activity of CD39 on Ramos cells (Cell Titer Glo) [2]: 0.05 µg/mL
EC50 [3]: 0.19 µg/mL
binding result (human CD39 mutant 19): no binding
binding result [4]: no binding (tested: about 50 µg/ml)
Median : Comp-Alexa Fluor 647-A [5]: 3720
B1: antibody I-394 (antibody, V domains shown)
VH: EVQLQQSGPELVKPGASVKMSCKASGYTFTDYNMHWVKQSHGRTLEWIGYIVPLNGGSTFNQKFKGRATLTVNTSSRTAYMELRSLTSEDSAAYYCARGGTRFAYWGQGTLVTVSA
VL: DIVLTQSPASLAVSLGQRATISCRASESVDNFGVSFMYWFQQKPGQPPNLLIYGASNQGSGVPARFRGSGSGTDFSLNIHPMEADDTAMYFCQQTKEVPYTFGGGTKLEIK
notes: Mouse variable regions; Produced in CHO with human IgG1 constant domains carrying L234A/L235E/G237A/A330S/P331S (Kabat EU numbering) and a human Ck constant domain
